Experimental data: article doi:10.1101/655696

Columns and labels:
[1] = molecular target: mature 30S ribosomal subunit (MRE600) (E. coli (endogenous in MRE600)) (UniProt P0AG67); assay: ultrafiltration assay
[2] = molecular target: pre-30S particles from the ΔrbfA strain (BX41) (E. coli (endogenous in BX41)); assay: ultrafiltration assay
[3] = molecular target: mature 30S ribosomal subunit (MRE600) (E. coli (endogenous in MRE600)) (UniProt P0AG67); assay: co-sedimentation + other: ultrafiltration assay
[4] = molecular target: mature 30S ribosomal subunit (MRE600) (E. coli (endogenous in MRE600)) (UniProt P0AG67); assay: co-sedimentation

Cy3-IF3 (from UniProt P0A707 1-180) (natural protein)
average fold change in bound IF3 over background [1]: 2.2 fold
average fold change in bound IF3 over background [2]: 1.9 fold

Cy5-RbfA (ribosome binding factor A labelled with Cy5 at position 2) (from UniProt P0A7G2 1-133) (natural protein)
t1/2 of the complex [3]: > 30 min
half-life of the complex [2]: > 60 min

Initiation factor 3 (IF3), wild type (from UniProt P0A707 1-180) (natural protein)
decrease of Cy5-RbfA fluorescence in the pelleted fraction with 4 µM IF3 [4]: > 80%
